*1 amine or outer side, *2 acyl side, *3 side chain or, on linkers, in order; H or OH if unused. Where no end group is shown, it is not given here. Side-chain parts run from the residue outwards. [ ]: non-standard residue; d: D form. The star is where a group is joined. Decanoyl(10-(4-HOOC-PhO)) = O=C(O)c1ccc(OCCCCCCCCCC(=O)*)cc1; αMePhe(2-F) = C[C@](N)(Cc1ccccc1F)C(=O)O; γGlu = O=C(O)[C@H](CCC(=O)[*:2])N[*:1]; αMeY = C[C@](N)(Cc1ccc(O)cc1)C(=O)O; αMeL = CC(C)C[C@](C)(N)C(=O)O; Orn = NCCC[C@H](N)C(=O)O; AEEA = NCCOCCOCC(=O)O; Aib = CC(C)(N)C(=O)O
T1: human GIP receptor (human) (UniProt P48546)
T1 sequence (looked up): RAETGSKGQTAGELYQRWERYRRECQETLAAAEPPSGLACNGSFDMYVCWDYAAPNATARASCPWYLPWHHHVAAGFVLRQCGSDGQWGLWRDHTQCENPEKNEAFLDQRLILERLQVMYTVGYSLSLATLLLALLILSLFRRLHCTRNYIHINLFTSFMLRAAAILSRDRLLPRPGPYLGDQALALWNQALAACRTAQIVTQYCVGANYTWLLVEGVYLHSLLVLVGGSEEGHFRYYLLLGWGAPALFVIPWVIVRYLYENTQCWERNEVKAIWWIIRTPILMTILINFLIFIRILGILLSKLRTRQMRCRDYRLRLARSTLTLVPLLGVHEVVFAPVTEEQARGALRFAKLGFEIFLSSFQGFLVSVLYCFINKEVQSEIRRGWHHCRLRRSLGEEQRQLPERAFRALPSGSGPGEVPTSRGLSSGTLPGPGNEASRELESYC

T2: human GIP receptor (human, UniProt P48546 22-466)
T2 sequence (looked up): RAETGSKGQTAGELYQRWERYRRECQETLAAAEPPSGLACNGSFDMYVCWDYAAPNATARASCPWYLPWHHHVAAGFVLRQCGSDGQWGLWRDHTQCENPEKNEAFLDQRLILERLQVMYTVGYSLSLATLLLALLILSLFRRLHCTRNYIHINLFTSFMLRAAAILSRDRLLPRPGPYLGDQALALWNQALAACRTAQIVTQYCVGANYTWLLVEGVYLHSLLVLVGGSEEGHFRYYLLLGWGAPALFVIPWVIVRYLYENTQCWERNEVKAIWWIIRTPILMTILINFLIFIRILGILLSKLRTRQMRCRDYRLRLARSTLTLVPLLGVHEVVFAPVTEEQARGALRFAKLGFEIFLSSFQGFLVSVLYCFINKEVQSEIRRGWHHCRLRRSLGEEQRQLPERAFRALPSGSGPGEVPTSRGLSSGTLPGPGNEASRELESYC


What was measured:
Assay in all cases: cell-based or functional assay
[1] = biological target: hGLP-1R (Homo sapiens, UniProt P43220)
[2] = biological target: T1, human GIP receptor (human)
[3] = biological target: human glucagon receptor (human) (UniProt P47871)
[4] = biological target: T2, human GIP receptor
[5] = biological target: human GLP-1 receptor (human, UniProt P43220 24-463)
[6] = biological target: human glucagon receptor (human, UniProt P47871 26-477)
Sequence of human glucagon receptor (P47871 26-477): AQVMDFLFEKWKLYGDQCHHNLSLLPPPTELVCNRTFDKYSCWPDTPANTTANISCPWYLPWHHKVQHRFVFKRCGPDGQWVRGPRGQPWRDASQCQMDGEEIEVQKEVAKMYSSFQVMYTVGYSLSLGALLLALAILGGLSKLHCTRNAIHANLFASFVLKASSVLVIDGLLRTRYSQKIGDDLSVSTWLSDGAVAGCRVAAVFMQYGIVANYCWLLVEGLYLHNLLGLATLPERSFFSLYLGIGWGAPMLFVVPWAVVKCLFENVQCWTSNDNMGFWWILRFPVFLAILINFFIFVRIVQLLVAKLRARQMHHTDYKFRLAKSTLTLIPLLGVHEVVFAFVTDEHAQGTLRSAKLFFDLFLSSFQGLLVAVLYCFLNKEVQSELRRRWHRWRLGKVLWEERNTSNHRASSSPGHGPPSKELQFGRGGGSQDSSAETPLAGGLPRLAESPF

Binder	cAMP EC50 [1] [nM]	cAMP Emax [1] [%]	cAMP EC50 [2] [nM]	cAMP Emax [2] [%]	cAMP EC50 [3] [nM]	cAMP EC50 (1.0% HSA) [4] [nM]	cAMP EC50 (1.0% HSA) [5] [nM]	cAMP EC50 (1.0% HSA) [6] [nM]	cAMP Emax (1.0% HSA) [4] [%]	cAMP Emax (1.0% HSA) [5] [%]
YXEGTXTSDXXIXLDXKAQXKFIXXLIEGGPSSGAPPPS (Y-Aib-EGT-αMeF(2F)-TSD-4Pal-Aib-I-αMeL-LD-Orn-K((2-[2-(2-Amino-ethoxy)-ethoxy]-acetyl)2-CO-(CH2)12-CO2H)AQ-Aib-K((2-[2-(2-Amino-ethoxy)-ethoxy]-acetyl)2-CO-(CH2)12-CO2H)FI-(D-Glu)-αMeY-LIEGGPSSGAPPPS-NH2) [Example 384]	0.308	98.2	0.0124	94.5	> 9950	0.457	5.32	> 9950	–	–
YXEGTXTSDYXIXLDXKAQXKFIXXLIEGGPSSGAPPPS (Y-Aib-EGT-αMeF(2F)-TSDY-Aib-I-αMeL-LD-Orn-K((2-[2-(2-Amino-ethoxy)-ethoxy]-acetyl)2-CO-(CH2)12-CO2H)AQ-Aib-K((2-[2-(2-Amino-ethoxy)-ethoxy]-acetyl)2-CO-(CH2)12-CO2H)FI-(D-Glu)-αMeY-LIEGGPSSGAPPPS-NH2) [Example 385]	0.189	100	0.0154	95.2	> 9950	0.558	10.6	> 9950	83.5	112
YXEGTXTSDVXIXLDXKAQXKFIXXLIEGGPSSGAPPPS (Y-Aib-EGT-αMeF(2F)-TSDV-Aib-I-αMeL-LD-Orn-K((2-[2-(2-Amino-ethoxy)-ethoxy]-acetyl)-(γ-Glu)-(10-(4-carboxyphenoxy)decanoyl))AQ-Aib-K((2-[2-(2-Amino-ethoxy)-ethoxy]-acetyl)-(γ-Glu)-(10-(4-carboxyphenoxy)decanoyl))FI-(D-Glu)-αMeY-LIEGGPSSGAPPPS-NH2) [Example 378]	0.166	98.9	0.0132	93.5	> 9950	7.46	47.7	> 9950	81.2	–
YXEGTXTSDVXIXLDXKAQXKFIXXLIEGGPSSGAPPPS (Y-Aib-EGT-αMeF(2F)-TSDV-Aib-I-αMeL-LD-Orn-K((2-[2-(2-Amino-ethoxy)-ethoxy]-acetyl)2-CO-(CH2)12-CO2H)AQ-Aib-K((2-[2-(2-Amino-ethoxy)-ethoxy]-acetyl)2-CO-(CH2)12-CO2H)FI-(D-Glu)-αMeY-LIEGGPSSGAPPPS-NH2) [Example 386]	0.194	98.9	0.0174	95.7	> 9950	2.08	17.7	> 9950	81.3	–
YXEGTXTSDYXIXLDXKAQXEFIXXLIKGGPSSGAPPPS (Y-Aib-EGT-αMeF(2F)-TSDY-Aib-I-αMeL-LD-Orn-K((2-[2-(2-Amino-ethoxy)-ethoxy]-acetyl)2-(10-(4-carboxyphenoxy)decanoyl))AQ-Aib-EFI-(D-Glu)-αMeY-LIK((2-[2-(2-Amino-ethoxy)-ethoxy]-acetyl)2-(10-(4-carboxyphenoxy)decanoyl))GGPSSGAPPPS-NH2) [Example 396]	0.291	107	0.0113	96.2	> 9950	0.595	6.49	> 9950	67.1	94.4
YXEGTXTSDVXIXLDXKAQXKFIXXLIEGGPSSGAPPPS (Y-Aib-EGT-αMeF(2F)-TSDV-Aib-I-αMeL-LD-Orn-K((2-[2-(2-Amino-ethoxy)-ethoxy]-acetyl)2-(10-(4-carboxyphenoxy)decanoyl))AQ-Aib-K((2-[2-(2-Amino-ethoxy)-ethoxy]-acetyl)2-(10-(4-carboxyphenoxy)decanoyl))FI-(D-Glu)-αMeY-LIEGGPSSGAPPPS-NH2) [Example 394]	0.223	101	0.0179	97.7	> 9950	1.38	5.83	> 9950	84.6	–
YXEGTXTSDYXIXLDXKAQXEFIXXLIKGGPSSGAPPPS (Y-Aib-EGT-αMeF(2F)-TSDY-Aib-I-αMeL-LD-Orn-K((2-[2-(2-Amino-ethoxy)-ethoxy]-acetyl)2-CO-(CH2)12-CO2H)AQ-Aib-EFI-(D-Glu)-αMeY-LIK((2-[2-(2-Amino-ethoxy)-ethoxy]-acetyl)2-CO-(CH2)12-CO2H)GGPSSGAPPPS-NH2) [Example 388]	0.292	95.4	0.0103	98.3	> 9950	0.463	6.31	> 9950	–	–
YXEGTXTSDVXIXLDXKAQXKFIXXLIEGGPSSGAPPPS (Y-Aib-EGT-αMeF(2F)-TSDV-Aib-I-αMeL-LD-Orn-K((2-[2-(2-Amino-ethoxy)-ethoxy]-acetyl)-(γ-Glu)-CO-(CH2)12-CO2H)AQ-Aib-K((2-[2-(2-Amino-ethoxy)-ethoxy]-acetyl)-(γ-Glu)-CO-(CH2)12-CO2H)FI-(D-Glu)-αMeY-LIEGGPSSGAPPPS-NH2) [Example 398]	0.215	101	0.0166	97.4	> 9950	5.4	41.3	> 9950	91.9	–
Y[Aib]EGT[αMePhe(2-F)]TSDV[Aib]I[αMeL]LD[Orn]K([AEEA-AEEA-Decanoyl(10-(4-HOOC-PhO))])AQ[Aib]EFI[dE][αMeY]LIK([AEEA-AEEA-Decanoyl(10-(4-HOOC-PhO))])GGPSSGAPPPS-NH2 [Example 397]	0.166	95.8	0.0293	94.6	> 9950	1.92	7.17	> 9950	84.5	–
Y[Aib]EGT[αMePhe(2-F)]TSDV[Aib]I[αMeL]LD[Orn]K([AEEA-AEEA-γGlu-Decanoyl(10-(4-HOOC-PhO))])AQ[Aib]EFI[dE][αMeY]LIEGGPSSGAPPPSK([AEEA-AEEA-γGlu-Decanoyl(10-(4-HOOC-PhO))])-NH2 [Example 380]	0.176	96.2	0.0209	100	> 9950	9.23	28	> 9950	93.5	94.5
